Source: the supplement of paper PMC9170038

Key:
MS2 coat protein [1] = test: apparent KD of MS2 coat protein, switch ON state; designed switch direction (-1 OFF switch, 1 ON switch): 1; higher = weaker reporter binding; conditions: FMN input: 0 or 200 uM; Eterna round: R93 (includes R88 designs)
In short: (§1)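 In 100 mM Tris-HCl pH 7.5 with 80 mM KCl and 4 mM MgCl2, and without or with constant ligand, SNAP-549-labelled MS2 coat protein was titrated in twofold steps from 0.7 or 1.5 nM to 3 µM. Per-step times went from 0.8–1.5 h down to 10–20 min. The RNA switches were transcribed on-chip from Illumina sequencing clusters, and apparent KD is the per-design median of normalised cluster binding-curve fits.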

MS2 coat protein [2] = test: apparent KD of MS2 coat protein, switch OFF state (with FMN for OFF switches, without FMN for ON switches); designed switch direction (-1 OFF switch, 1 ON switch): 1; higher = weaker reporter binding; conditions: FMN input: 0 or 200 uM; Eterna round: R93 (includes R88 designs)
In short: as §1

Sequence	apparent KD of MS2 coat protein (MS2 coat protein [1])	apparent KD of MS2 coat protein (MS2 coat protein [2])
AAACCACAUGAGGAUCACCCAUGUAAGAUAUACAUAGGAUAUGCGAAAAGAAACAAAGAAGCAGAAGGGUGAAAAA [75%, Ex sub1, 14]	172 nM	72.8 nM
UGAAAACAUGAGGAUCACCCAUGUAAAAACAUGGGAGGAUAUUGAAAAAAAAAAAAAAAACAAGAAGGCCCAAAAA [crooked]	37.7 nM	25.3 nM
GAAAAACAUGAGGAUCACCCAUGUAAGAUAAACACAGGAUAUGCGAAAAGAAAGAAAGAAGCAGAAGGGUGAAGAA [Mat - Same State 1 - Tesla mod - 40]	12.3 nM	33.7 nM
AAAAAACAUGAGGAUCACCCAUGUGACAACAUGGGAGGAUAUACGAAGACGAGAGUCGAAGUAGAAGGCCUAAAAA [Garnet 76]	98.5 nM	65.2 nM
AAAACUACAGAUCAGGAUAUGUUUGGGUAAACAUGAGGAUCACCCAUGUGCACCCGAUAAACAACACAGAAGGGAUAACGUGGGA [Soensole]	12.7 nM	23.7 nM
AAAGACACAGUGCAGGAUAUGGUAAUAGUCACAUGAGGAUCACCCAUGUUCUUUUAUAAGAACGAUCAGAAGGGCGGUGAAAAAA [SameState2 Malc#12]	111 nM	295 nM
AAGAAACAUGAGGAUCACCCAUGUAAAAAUAUGGGAGGAUAUACAAGGACGUAAGUCAAGGUAGAAGGCCUAAGAA [Mat - Same State 1 - Meechl mod - D136]	20.2 nM	82.5 nM
AGAAAUAAAAGAGAGGAUAUUCAAAAAGGGACAUGAGGAUCACCCAUGUAAAAGAAAAUAAAAUGGGAGAAGGCUCAAAAUAAAG [80%, More Helter Skelter 2]	85.5 nM	61.7 nM
UGGAGACAUGAGGAUCACCCAUGUGAGAAGAGGCGAGGAUAUCGAAAGAAAGAAGAGAAACGAGAAGGCGCGAGCU [salish99-SS1-037]	22.4 nM	36.1 nM
AAAUAAAUGACUGAGGAUAUAUCGAUGGGUACAUGAGGAUCACCCAUGUGUUAAUAAAAAGGGUGGUAGAAGGUAGUCAACAAAC [Mod 16 of Pariah 4 by Hyphema in Round 1]	238 nM	748 nM
AAAAAACAUGAGGAUCACCCAUGUAAAAAAAUGGGAGGAUAUACAAAGACGAAAGUCAAAGUAGAAGGCCUGAAAG [same state 3]	21.7 nM	58.4 nM
AUAAAAGAAGCGAAGGAUAUCCAAAAACCAACAUGAGGAUCACCCAUGUAAAGAAAGAAAAAAUGGGAGAAGGUCGCAAAGAAUA [73%, More Fisker Same State 2, D3, 8]	11.8 nM	17.7 nM
AGGAGACAUGAGGAUCACCCAUGUGAGAAGAGGCGAGGAUAUCGAAAGAAAGAAGAGAAACGAGAAGGCGCGAGGC [salish99-SS1-031]	27 nM	23.5 nM
AAAUAAAAAAGGGAGGAUAUUCAUGUGAAAACAUGAGGAUCACCCAUGUAAAAAAAUAAAAAUAAAAAGAAGGAAAAAUAAAAAA [SS2: 80 No MS2]	6.62 nM	151 nM
GGAUAUAUACAGGAGGAUAUGAGAACAAAGACAUGAGGAUCACCCAUGUACAAAAGGUGGAACAAUCAGAAGGUCUAAACAACAAA [Thing 1 and Thing 2]	61 nM	49.7 nM
AGGAGACAUGAGGAUCACCCAUGUGCACGUGGACGAGGAUAUGCUAGUAGAAGAUAGAAUGCAGAAGGCGUAAGAA [Mod of JR]	48.4 nM	29.9 nM
AAAAAAAAAACUCAGGAUAUAGAUAAUUGAACAUGAGGAUCACCCAUGUAGUGAAAAAAAAAAAAUUAGAAGGGAGGAAAAAAAAA [SameState2-01]	52.9 nM	45.4 nM
AUGGUCAAGUGUGAGGAUAUCCAUGCUCCCACAUGAGGAUCACCCAUGUCUUAAAGGGCGUAAAGGGAGAAGGUACGAACGCCAC [Edatxein]	40.7 nM	78.3 nM
GAAAAACAUGAGGAUCACCCAUGUGGAAAUAUGGGAGGAUAUACUAUGACGAAAGUCAAAGUAGAAGGCCUGAUAG [JL S1 M-MoE mod 5 In the Read]	24.7 nM	124 nM
AAAAUAAAAAGGCAGGAUAUCCAAAAUAAAACAUGAGGAUCACCCAUGUAAAUAAAAAUAAAGUGGGAGAAGGGUUAAAAAUAAAA [High Roller3]	32.5 nM	46.8 nM
AGAAAACAUGAGGAUCACCCAUGUGAUAAUAUGGGAGGAUAUACGAAGACGAAAGUCGACGUAGAAGGCCUAAAGA [Garnet 48]	35.3 nM	70.8 nM
GAUAAACAUGAGGAUCACCCAUGUAGAAAUAUGGGAGGAUAUACAAAGACGAUAGUCAAAGUAGAAGGCCUAAAAG [77%, Mat - Mod of Eli - With 2 more U's]	24.8 nM	85.9 nM

Sequence	apparent KD of MS2 coat protein (MS2 coat protein [1])	apparent KD of MS2 coat protein (MS2 coat protein [2])
AAAUAUAAAAACUAGGAUAUACUAAAAUAAACAUGAGGAUCACCCAUGUAAAAAAAAAAACUCAUGUAGAAGGAGUAAAUAUAAA [ss2 9th]	22.6 nM	13.8 nM
AAUAAGACUAGCAAGGAUAUCGAAAACGAGACAUGAGGAUCACCCAUGUAACAAGUAUAAGUAUACGAGAAGGUGCAGGGUGUAA [JR_SS002_Sub302]	174 nM	36.9 nM
AAAAAACAUGAGGAUCACCCAUGUAAACCUCAUGUAGGAUAUACAAAAAAAAAAAAAAAAGUAGAAGGACAAAAAA [Omei A variation 2]	4790 nM	1970 nM
AAGAAACAUGAGGAUCACCCAUGUGAGAUAAACACAGGAUAUGCGAAAAUAAACAAAUAAGCAGAAGGGUGAAGAA [Mat - Same State 1 - Tesla mod - 68]	32.9 nM	74.8 nM
AAUAUACAUGAGGAUCACCCAUGUGAAAAUAUGGAAGGAUAUCGUAAAAAAAAAAAAAAACGAGAAGGUCCAAAAA [SS! 1 MT 14]	18.7 nM	30.2 nM
AAUACACAUGGUCAGGAUAUCGCAGCUAGGACAUGAGGAUCACCCAUGUAGCAUGUAACUGAAACCGAGAAGGGACAGGGUGAUC [JR_SS002_Sub412]	61.4 nM	85.1 nM
AAAGAAAAACUAGAGGAUAUUUGAGUGGUAACAUGAGGAUCACCCAUGUGAAGAAAAGAACAUGAGGAGAAGGCUAGAAGAAAAA [JL Nando mod 15]	23.1 nM	42.3 nM
AGAAAACAUGAGGAUCACCCAUGUCAAAUAAGUCAAGGAUAUGGGACUCCGCGAGAGUCGCCAGAAGGUGAGAAAA [Aatrara]	17.5 nM	49.5 nM
AAAAGACAUGAGGAUCACCCAUGUCUUCGGACAUGAGGAUAUGUACAGACUUCGGUCUGUACAGAAGGCAUGAAAA [SS1 - 1065]	18.5 nM	48.3 nM
GAAAAACAUGAGGAUCACCCAUGUGAGAUAAACACAGGAUAUGCGAAAAGAAACAAAUAAGCAGAAGGGUGAAAAG [Mat - Same State 1 - Tesla mod - 81]	44.1 nM	282 nM
AGCAUAGACAGAGAGGAUAUCCACGAGACAACAUGAGGAUCACCCAUGUGAUAGAGAAUACGAUGGGAGAAGGCUCGCGGUACGA [Topaz 50]	13.9 nM	61.3 nM
GAGGACAUAGUAUAGGAUAUAUGAAUAAUUACAUGAGGAUCACCCAUGUCCAUUUAUAUGGGAACAUAGAAGGGUGGUAGUUAUC [SameState2 Malc#33]	102 nM	202 nM
AGGAAACAUGAGGAUCACCCAUGUAAAAAUAUGGGAGGAUAUAGAAAGACGAAAGUCAAACUAGAAGGCCUAAAAG [Garnet 5]	16.1 nM	83.3 nM
AUAACACAUGAGGAUCACCCAUGUAGAAACAAGUCAGGAUAUGCGACCUCAUGAAAUAAAGCAGAAGGGACACUAA [SS 1 Tesla 5]	31.5 nM	150 nM
AAAAGACAUGAGGAUCACCCAUGUCGAAAGACAUGAGGAUAUGUACAGACUUCGGUCUGUACAGAAGGCAUGUAAA [SS1 - 1068]	16.7 nM	50.3 nM
GAAAAACAUGAGGAUCACCCAUGUGAGAAUAUGGGAGGAUAUACGAAGACGAGAGUCGAAGUAGAAGGCCUAAAAG [Mat - Same State 1 - Eli mod - 31]	28.2 nM	119 nM
AUAUAUAUAAGGUAGGAUAUCCAAUAAUCCACAUGAGGAUCACCCAUGUAAAGAAAGAAAAAGUGGGAGAAGGACCAUAUAUAUA [77%, More Tesla, 7]	17.6 nM	34 nM
AAAUAAAAAAAAGAGGAUAUUCAUGUGAAAACAUGAGGAUCACCCAUGUAAAAAAAUAAAAAUAAAAAGAAGGAAAAAUAAAAAA [SS2: 83 No MS2]	23.6 nM	25.1 nM
AUUUAACAUGAGGAUCACCCAUGUAGGAAUACUGCAGGAUAUCGACACGAAAAUACGUGUCGAGAAGGGCAUGAAA [SS1 MT 25]	13.8 nM	22 nM
AAAAGACAUGAGGAUCACCCAUGUCAAGACAUAGGAGGAUAUGUCGUGAAAAAAGACUUGGCAGAAGGCCUUUGUC [SS1 - 47]	14.3 nM	16.1 nM
AAGAAACAUGAGGAUCACCCAUGUAAGAUAAACACAGGAUAUGCGAAAAGAAAGAAAGAAGCAGAAGGGUGAAGAA [Mat - Same State 1 - Tesla mod - 39]	17.4 nM	41.7 nM
